Results reported in article PMC5698441 (Nature Communications, 2017).

Target: T1, biotinylated CaM (UniProt P0DP23 1-149, biotin (EZ link NHS Biotin, two-fold molar excess))
T1 construct: calmodulin, biotin-labelled; also called biotin-CaM; biotin-labeled CaM; source: purified CaM labelled with EZ link NHS Biotin, separated from free biotin by SEC
Assay: AlphaScreen or HTRF; competition: WT or mutant 20-mer peptides AKAP79 77-96 added to biotin-CaM (10 nM) and GST-AKAP79 (1-153); emission relative to untreated; peptide concentration not given
Settings: both partners purified

B1: 20-mer AKAP79 (77–96) V86A (peptide)
peptide: GAWASLKRLATRRKRSESSK
notes: AKAP79 residues 77-96 with V86A; also called V86A peptide; source: synthetic peptide (Sigma PEPscreen)
alphascreen emission relative to untreated samples: 0.17 ± 0.04 relative to untreated
